Changes are numbered by the printed parent chain. Each block holds one binder with its values, some of them ahead of it.
Experiments:
[1] = target: human ACVR2A (human, UniProt P27037 20-135, limits assumed); test: ELISA
Summary of the method: (§1)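 Binding signal was read by ELISA after ACVR2A-specific monoclonal antibodies were tested against human ACVR2A and mouse ACVR2A, with human Fc as the negative control.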

[2] = target: mouse ACVR2A (mouse, UniProt P27038 20-135, limits assumed); test: ELISA
Sequence of mouse ACVR2A (P27038 20-135 limits assumed): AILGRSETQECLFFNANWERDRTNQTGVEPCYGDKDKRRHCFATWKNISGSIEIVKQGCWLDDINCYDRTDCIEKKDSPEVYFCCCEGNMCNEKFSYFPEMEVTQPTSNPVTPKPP
Summary of the method: as §1

[3] = target: T1, biotinylated goat anti-human kappa light chain; test: ELISA; positive control
T1 construct: Positive control of the ELISA
Summary of the method: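 Monoclonal antibodies were first applied to human or mouse ACVR2A, alongside biotinylated goat anti-human kappa light chain (positive control) and human Fc (negative control); binding was then determined by ELISA.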
Note: test concentration or dose not given here.

Sequence of human ACVR2A (P27037 20-135 limits assumed): as the sequence (P27038 20-135 limits assumed) above, with R20K, I73V counted along it

B4: 375_G07 (antibody, V domains shown)
VH: EVQLLESGGGLVQPGGSLRLSCAASGFTFDSYSMNWVRQAPGKGLEWVAGINYNSGYTSYADSVKGRFTISRDNSKNTLYLQMNSLRAEDTAVYYCARSATWHDTHLDYWGQGTLVTVSS
VL: DIQMTQSPSSLSASVGDRVTITCRASQSILSYLNWYQQKPGKAPKLVIYAATSLASGVPSRFSGSGSGTDFTLTISSLQPEDFATYYCQQSYDLPLTFGGGTKVEIK
notes: VH/VL only
optical density [1]: 3.63 OD | optical density [2]: 3.67 OD | optical density [3]: 3.2 OD

B5: 375_E07 (antibody, V domains shown)
VH: B4 VH with D30S, S31D, T58K, S59G, T101N, H106A
VL: B4 VL with L30V, S31T, V47L, A50V, A51V, S53N, L54R, A55E, D93E, L94T
notes: VH/VL only
optical density [1]: 3.68 OD | optical density [2]: 3.81 OD | optical density [3]: 3.06 OD

B6: 376_E12 (antibody, V domains shown)
VH: B4 VH with D30S, S55G, T58K
VL: not shown
notes: VH/VL only
optical density [1]: 3.61 OD | optical density [2]: 3.32 OD | optical density [3]: 3.42 OD

B7: 375_A05 (antibody, V domains shown)
VH: B4 VH with D30S, S33G, G50N, S55G, T58K, S59G, T101N, H106A
VL: B4 VL with V47L, L54R
notes: VH/VL only
optical density [1]: 3.72 OD | optical density [2]: 3.69 OD | optical density [3]: 3.12 OD

B12: 376_C02 (antibody, V domains shown)
VH: B4 VH with S33G, A49S, T101N, H106A
VL: B4 VL with L30V, A51V, L54R, L94S
notes: VH/VL only
optical density [1]: 3.44 OD | optical density [2]: 3.53 OD | optical density [3]: 3.44 OD

B13: 376_B01 (antibody, V domains shown)
VH: B4 VH with S55G
VL: B4 VL with S31T, L33V, L54R, D93N
notes: VH/VL only
optical density [1]: 3.28 OD | optical density [2]: 3.67 OD | optical density [3]: 3.24 OD

B16: 376_E08 (antibody, V domains shown)
VH: B4 VH with D30S, S31D, S33G, S55G, T101N, H106A
VL: B4 VL with L30V, L33V, L54R, L94S
notes: VH/VL only
optical density [1]: 3.64 OD | optical density [2]: 3.64 OD | optical density [3]: 3.47 OD

B22: 376_D11 (antibody, V domains shown)
VH: B4 VH with D30S, S33G, G50N, S55G, S59G, T101N, H106A
VL: B4 VL with L54R, D93N, L94N
notes: VH/VL only
optical density [1]: 3.7 OD | optical density [2]: 3.62 OD | optical density [3]: 3.43 OD

B26: 376_B07 (antibody, V domains shown)
VH: B4 VH with A49S, H106A
VL: B4 VL with A50Y, A51V, T52S, S53N, L54R, L94N
notes: VH/VL only
optical density [1]: 3.73 OD | optical density [2]: 3.71 OD | optical density [3]: 3.53 OD

B29: 375_A02 (antibody, V domains shown)
VH: B4 VH with D30S
VL: not shown
notes: VH/VL only
optical density [1]: 2.98 OD | optical density [2]: 3.18 OD | optical density [3]: 3.07 OD

B30: 376_A04 (antibody, V domains shown)
VH: B4 VH with A49S, G50N, S55G, T101N, H106A
VL: B4 VL with L30V, S31T, L54R, L94S
notes: VH/VL only
optical density [1]: 3.59 OD | optical density [2]: 3.58 OD | optical density [3]: 3.12 OD

B31: 376_C01 (antibody, V domains shown)
VH: B4 VH with S55G, T101N, H106A
VL: B4 VL with S31T, V47L, L94N
notes: VH/VL only
optical density [1]: 3.26 OD | optical density [2]: 3.6 OD | optical density [3]: 3.2 OD

B32: 376_C11 (antibody, V domains shown)
VH: B4 VH with T58K
VL: B4 VL with S31T, L54R, L94N
notes: VH/VL only
optical density [1]: 3.7 OD | optical density [2]: 3.63 OD | optical density [3]: 3.46 OD

B36: 376_B09 (antibody, V domains shown)
VH: B4 VH with G50N, T58K, S59G, T101N, H106A
VL: B4 VL with S31T, L33V, L54R
notes: VH/VL only
optical density [1]: 3.78 OD | optical density [2]: 3.72 OD | optical density [3]: 3.51 OD

More lines, now with the values ahead:

optical density [1]: 3.25 OD | optical density [2]: 3.26 OD | optical density [3]: 3.04 OD
B1: 374_H09 (antibody, V domains shown)
VH: B4 VH with D30S, G50N, T58K, T101N, H106A
VL: B4 VL with A51V
notes: VH/VL only

optical density [1]: 3.66 OD | optical density [2]: 3.33 OD | optical density [3]: 3.27 OD
B2: 375_C12 (antibody, V domains shown)
VH: B4 VH with D30S, G50N, S55G, S59G
VL: B4 VL with S31T, V47L, L54R
notes: VH/VL only

optical density [1]: 3.49 OD | optical density [2]: 3.56 OD | optical density [3]: 3.43 OD
B3: 376_C06 (antibody, V domains shown)
VH: B4 VH with D30S, S33G, S55G, H106A
VL: B4 VL with L54R, L94S
notes: VH/VL only

optical density [1]: 3.46 OD | optical density [2]: 3.61 OD | optical density [3]: 3.21 OD
B8: 375_D05 (antibody, V domains shown)
VH: B4 VH with D30S, G50S, T101N
VL: B4 VL with L30V, V47L, A55H, L94T
notes: VH/VL only

optical density [1]: 3.69 OD | optical density [2]: 3.73 OD | optical density [3]: 3.26 OD
B9: 375_B04 (antibody, V domains shown)
VH: B4 VH with G50N, S55G, S59G
VL: B4 VL with S31T, V47L, L54R, L94N
notes: VH/VL only

optical density [1]: 3.24 OD | optical density [2]: 3.16 OD | optical density [3]: 3.23 OD
B10: 375_D12 (antibody, V domains shown)
VH: B4 VH with S33G, A49S, G50S, T101N, H106A
VL: B4 VL with S31T, L33V, L54R, D93E, L94T
notes: VH/VL only

optical density [1]: 3.26 OD | optical density [2]: 3.1 OD | optical density [3]: 3.26 OD
B11: 375_H12 (antibody, V domains shown)
VH: B4 VH with D30S, S33G, S55G, T58K, S59G, T101N, H106A
VL: B4 VL with S31T, V47L, A50Y, A51V, S53N, L54R, A55Q, D93S, L94I
notes: VH/VL only

optical density [1]: 3.41 OD | optical density [2]: 3.48 OD | optical density [3]: 3.58 OD
B14: 376_B04 (antibody, V domains shown)
VH: B4 VH with S33G, N35H, G50S, S55G, S59G, T101N, H106A
VL: B4 VL with L30V, L33V, L54R, L94T
notes: VH/VL only

optical density [1]: 3.79 OD | optical density [2]: 3.74 OD | optical density [3]: 3.42 OD
B15: 376_E03 (antibody, V domains shown)
VH: B4 VH with D30S, S33G, G50N, S55G, S59G, T101N, H106A
VL: B4 VL with L33V
notes: VH/VL only

optical density [1]: 3.7 OD | optical density [2]: 3.77 OD | optical density [3]: 3.46 OD
B17: 376_B06 (antibody, V domains shown)
VH: B4 VH with D30S, T58K, S59G
VL: B4 VL with S31T, V47L, L54R
notes: VH/VL only

optical density [1]: 3.7 OD | optical density [2]: 3.34 OD | optical density [3]: 3.22 OD
B18: 376_A12 (antibody, V domains shown)
VH: B4 VH with D30S, G50N, T58K, S59G, T101N, H106A
VL: B4 VL with L33V, L54R, L94T
notes: VH/VL only

optical density [1]: 3.69 OD | optical density [2]: 3.74 OD | optical density [3]: 3.16 OD
B19: 376_A06 (antibody, V domains shown)
VH: B4 VH with A49S, H106A
VL: B4 VL with A50Y, A51V, T52S, S53N, L54R, L94N
notes: VH/VL only

optical density [1]: 3.6 OD | optical density [2]: 3.71 OD | optical density [3]: 3.34 OD
B20: 376_D05 (antibody, V domains shown)
VH: B4 VH with D30S, A49S, G50N, S55G, T58K, S59G, T101N, H106A
VL: B4 VL with L30V, L33V, V47L, L94T
notes: VH/VL only

optical density [1]: 3.16 OD | optical density [2]: 3.63 OD | optical density [3]: 3.11 OD
B21: 375_E01 (antibody, V domains shown)
VH: B4 VH with D30S, A49S, T58K, T101N, H106A
VL: B4 VL with S31T, L54R, Y92D, L94S
notes: VH/VL only

optical density [1]: 3.65 OD | optical density [2]: 3.78 OD | optical density [3]: 3.52 OD
B23: 376_B05 (antibody, V domains shown)
VH: B4 VH with D30S, G50N, S55G, S59G, T101N, H106A
VL: B4 VL with L30I, L33V, V47L, L54R, D93E
notes: VH/VL only

optical density [1]: 3.7 OD | optical density [2]: 3.32 OD | optical density [3]: 3.39 OD
B24: 376_C12 (antibody, V domains shown)
VH: B4 VH with D30S, S55G, S59G, T101N, H106A
VL: B4 VL with S31T, L33V, V47L, L54R, L94S
notes: VH/VL only

optical density [1]: 3.68 OD | optical density [2]: 3.64 OD | optical density [3]: 3.17 OD
B25: 376_A10 (antibody, V domains shown)
VH: B4 VH with D30S, S31D, S33G, A49S, G50N, T58K, S59G, T101N, H106A
VL: B4 VL with V47L, L54R, D93E, L94S
notes: VH/VL only

optical density [1]: 3.69 OD | optical density [2]: 3.75 OD | optical density [3]: 3.61 OD
B27: 376_B11 (antibody, V domains shown)
VH: B4 VH with D30S, A49S, S55G, T101N, H106A
VL: B4 VL with L33V, L54R
notes: VH/VL only

optical density [1]: 3.65 OD | optical density [2]: 3.71 OD | optical density [3]: 3.11 OD
B28: 375_A06 (antibody, V domains shown)
VH: B4 VH with D30S, T58K, S59G
VL: B4 VL with S31T, L33V, V47L, T52S, A55Q, D93S, L94T
notes: VH/VL only

optical density [1]: 3.29 OD | optical density [2]: 3.4 OD | optical density [3]: 3.3 OD
B33: 375_D08 (antibody, V domains shown)
VH: B4 VH with D30S, S31D, S33G, A49S, T58K, S59G, T101N, H106A
VL: B4 VL with L30I, S31T, V47L, L54R, D93S, L94T
notes: VH/VL only

optical density [1]: 3.56 OD | optical density [2]: 3.63 OD | optical density [3]: 3.25 OD
B34: 375_D07 (antibody, V domains shown)
VH: B4 VH with D30S, S33G, G50N, S59G, T101N, H106A
VL: B4 VL with L30I, S31T, V47L, L54R, L94T
notes: VH/VL only

optical density [1]: 2.65 OD | optical density [2]: 3.21 OD | optical density [3]: 3.29 OD
B35: 375_C06 (antibody, V domains shown)
VH: B4 VH with S31D, S33G, N35H, G50S, T101N, H106A
VL: B4 VL with S31T, L33V, A51T, L54R, L94S
notes: VH/VL only
